According to patent US20250084161A1 (BIOSCEPTRE AUST, published 2025):
Residue numbers refer to the chain shown, from its start.

Assays:
[1] = target: T1, pDisplay-ECD2 on HEK293 cells (Homo sapiens (Human), UniProt Q99572 47-306); assay: flow cytometry, live HEK293E cells expressing pDisplay-ECD2 ('HEK293E-pDisplay ED'), dAb at 5 uM, detection with anti-human IgG Fab
T1 construct: also called ECD2 as pDisplay; not shown: N-terminal HA tag of pDisplay (told for ECD1); c-Myc tag and PDGFR transmembrane anchorage of pDisplay (told for ECD1)
T1 sequence: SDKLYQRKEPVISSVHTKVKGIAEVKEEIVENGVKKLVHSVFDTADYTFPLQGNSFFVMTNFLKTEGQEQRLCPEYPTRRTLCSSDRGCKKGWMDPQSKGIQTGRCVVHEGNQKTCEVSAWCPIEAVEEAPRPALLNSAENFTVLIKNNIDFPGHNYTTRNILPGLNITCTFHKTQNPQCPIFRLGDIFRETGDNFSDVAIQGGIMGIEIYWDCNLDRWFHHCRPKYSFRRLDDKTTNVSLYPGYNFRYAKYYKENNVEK

[2] = target: T2, E200 peptide; assay: Biacore using E200, dAb-Fc
T2 construct: Made by solid phase synthesis at Chiron Mimotopes; Which form (free, conjugated, biotinylated) was on the chip is told only for some experiments; also called peptide antigen E200; E200-biotin peptide

[3] = target: T2, E200 peptide; assay: Biacore using E200 (10RU), dAb-Fc at 100 pM to 1 nM
[4] = target: T3, ECD2, P2X7 receptor (47-306), soluble (Homo sapiens (Human), UniProt Q99572 47-306); assay: Biacore against ECD2 in either solution form or as a ECD-Fc construct; Fc format; ECD2 in solution or as ECD-Fc, form not told
T3 construct: also called soluble ECD2; ECD2 domain
T3 sequence: T1 sequence

[5] = target: T3, ECD2, P2X7 receptor (47-306), soluble; assay: Biacore, dAb domain without Fc; dAb domain, no Fc format
[6] = target: T3, ECD2, P2X7 receptor (47-306), soluble; assay: Biacore against ECD2 in either solution form or as a ECD-Fc construct; Fc construct
[7] = target: T3, ECD2, P2X7 receptor (47-306), soluble; assay: Biacore against ECD2 in either solution form or as a ECD-Fc construct; Fc format taken from context
[8] = target: T3, ECD2, P2X7 receptor (47-306), soluble; assay: Biacore, labelled dAb domain at 5 and 2.5 nM; target taken as ECD2 from the sentence before; Alexa488-labelled dAb domain
[9] = target: T3, ECD2, P2X7 receptor (47-306), soluble; assay: Biacore, labelled dAb domain at 10 and 5 nM; target taken as ECD2 from the paragraph before; Alexa488-labelled dAb domain, different parent
[10] = target: T3, ECD2, P2X7 receptor (47-306), soluble; assay: single domain format; method not given
[11] = target: T2, E200 peptide; assay: Biacore, E200 peptide

B1: 2.4 (other)
VH single domain (dAb): EVQLLESGGGLVQPGGSLRLTCAASGFSFRNHDMGWVRQAPGKGLEWVSAISGSGGSTYYADSVKGRFTISRDNSKNTLYLQMNSLRAEDTAVYYCAEPKPMDTEFDYRSPGTLVTVSS
notes: Read as PEP2-2-4, in line with '2' = PEP2-2 and '47.1' = PEP2-47-1; it is not PEP2-4; also called PEP2-2-4; PEP2-2-4 dAb
Does B1 bind [1]?
Result: binds

B2: PEP2-247-2 Fc (Fc fusion)
chain: B1 VH single domain (dAb) with T21S, S28T, D62N, K100S, P101H, M102F, T104R, E105P, P111Q
notes: Standard format dAb-Fc with human type IgG1 Fc subtype; also called 2-247-2 (PEP-Fc); 2-2-1/2-47-1 CDR crossover; not shown: human IgG1 Fc
With B2 as the binder, how does the Kd [2] read?
Its Kd is 450 pM.

B3: PEP2-2-2 Fc (Fc fusion)
chain: B1 VH single domain (dAb) with T21S, S28T, P111Q
notes: Standard format dAb-Fc with human type IgG1 Fc subtype; also called 2-2-2 (PEP-Fc); not shown: human IgG1 Fc
With B3 as the binder, how does the Kd [2] read?
The Kd was 100 pM.

B4: PEP2-2-1-1 Fc (Fc fusion)
chain: B1 VH single domain (dAb) with T21S, S28T
notes: Standard format dAb-Fc with human type IgG1 Fc subtype; also called 2-2-1-1 (PEP-Fc); not shown: human IgG1 Fc
B4 was tested. Which Kd [2] did it give?
The Kd was 90 pM.

B5: PEP2-2-3 Fc (Fc fusion)
chain: B1 VH single domain (dAb) with T21S, S28T, R109W
notes: Standard format dAb-Fc with human type IgG1 Fc subtype; also called 2-2-3 (PEP-Fc); not shown: human IgG1 Fc
How did the Kd [3] turn out when B5 was run?
The Kd was 130 pM.

And the Kd [4]?
The Kd was 1500 pM.

B6: PEP2-247-1 Fc (Fc fusion)
chain: B1 VH single domain (dAb) with T21S, S28T, S57G, K100S, P101H, M102F, T104R, E105P, P111Q
notes: Standard format dAb-Fc with human type IgG1 Fc subtype; also called 2-247-1 (PEP-Fc); 2-2/2-47-1 CDR crossover; not shown: human IgG1 Fc
B6 was tested. Which Kd [2] did it give?
Its Kd is 190 pM.

B7: PEP2-2-12 dAb domain (other)
VH: B1 VH single domain (dAb) with T21S, S28T, D62N, R109P
notes: Human VH dAb domain, no Fc format
Which Kd [5] does the source give for B7 here?
The Kd was 945 pM.

B8: PEP2-2-1 Fc (Fc fusion)
chain: B1 VH single domain (dAb) with T21S, S28T, D62N
notes: Standard format dAb-Fc with human type IgG1 Fc subtype; also called PEP2-2-1 dAb-FC; not shown: human IgG1 Fc
With B8 as the binder, how does the Kd [6] read?
Its Kd is 560 pM.

B9: 2.5 (other)
VH single domain (dAb): B1 VH single domain (dAb) with T21S, S28T, N74D
notes: Read as PEP2-2-5; it is not PEP2-5; also called PEP2-2-5; PEP2-2-5 dAb
Does B9 bind [1]?
Result: binds

B10: 47.1 (other)
VH single domain (dAb): EVQLLESGGGLVQPGGSLRLSCAASGYTFPMKDMGWVRQAPGKGLEWVSAISGSGGGTYYADSVKGRFTISRDNSKNTLYLQMNSLRAEDTAVYYCAEPSHFDRPFDYRSQGTLVTVSS
notes: also called PEP2-47-1; PEP2-47-1 dAb
Does B10 bind [1]?
Result: binds

B11: PEP2-472-1 Fc (Fc fusion)
chain: B10 VH single domain (dAb) with S100K, H101P, F102M, R104T, P105E
notes: Standard format dAb-Fc with human type IgG1 Fc subtype; also called 2-47-1/2-2-2 CDR crossover; not shown: human IgG1 Fc
How did the Kd [7] turn out when B11 was run?
Its Kd is 584 pM.

What about the Kd [2] of the same binder?
The Kd was 90 pM.

B12: PEP2-2-12Alexa488 domain (other)
VH: B1 VH single domain (dAb) with T21S, S28T, D62N, R109P
modifications: Alexa488 label attached (site not stated)
notes: Human VH dAb domain, labelled; also called PEP2-2-12 with Alexa488 label
B12 was tested. Which Kd [8] did it give?
The Kd was 174 pM.

B13: PEP2-472-12Alexa488 domain (other)
VH: B10 VH single domain (dAb) with S100K, H101P, F102M, R104T, P105E, Q111P
modifications: Alexa488 label attached (site not stated)
notes: Human VH dAb domain, labelled
For B13, which Kd [9] is on record?
The Kd was 156 pM.

B14: PEP2-47 dAb (other)
VH: B10 VH single domain (dAb) with Y27F, G57S, R109W, S110G
notes: Human VH dAb, unformatted
Does B14 bind [10]?
Result: binds

B15: PEP2-2-3 dAb (other)
VH: B1 VH single domain (dAb) with T21S, S28T, R109W
notes: Human VH dAb, unformatted; also called unformatted dAb PEP2-2-3
How did the Kd [11] turn out when B15 was run?
The Kd was 7000 pM.

B16: PEP2-47 Fc (Fc fusion)
chain: B10 VH single domain (dAb) with Y27F, G57S, R109W, S110G
notes: Standard format dAb-Fc with human type IgG1 Fc subtype; also called 2-47 (PEP-Fc); not shown: human IgG1 Fc
Which Kd [2] does the source give for B16 here?
Its Kd is 7500 pM.

B17: PEP2-47-1 Fc (Fc fusion)
chain: B10 VH single domain (dAb)
notes: Standard format dAb-Fc with human type IgG1 Fc subtype; also called 2-47-1 (PEP-Fc); not shown: human IgG1 Fc
Which Kd [2] does the source give for B17 here?
The Kd was 110 pM.

B18: 42.2 (other)
VH single domain (dAb): EVQMLESGGGLVQPGESLRLSCAASGFTFDNVEMSWVRQAPGKGLEWVSSIGSKGEYTYYADSVKGRFTISRDNSKNTLYLQMNSPRAEDTAVYYCAQTVNVPEPAFAYWGQGTLVTVSS
notes: also called PEP2-42-2; PEP2-42-2 dAb
Does B18 bind [1]?
Result: binds

B19: PEP2-42 Fc (Fc fusion)
chain: B18 VH single domain (dAb) with M4L, E16G, Y57D, P86L
notes: Standard format dAb-Fc with human type IgG1 Fc subtype; also called 2-42 (PEP-Fc); not shown: human IgG1 Fc
With B19 as the binder, how does the Kd [2] read?
The Kd was 5500 pM.
